Assay results as given in article PMC9919357.

Target: Neuropeptide Y (TAMRA-NPY) (Sus scrofa), P01304

Kd: 0.032 µM
B1: Neuropeptide Y receptor type 2 (Y2R-A202C), P49146 (protein)
chain: MGPIGAEADENQTVEEMKVEQYGPQTTPRGELVPDPEPELIDSTKLIEVQVVLILAYASIILLGVIGNSLVIHVVIKFKSMRTVTNFFIANLAVADLLVNTLALPFTLTYTLMGEWKMGPVLCHLVPYAQGLAVQVSTITLTVIALDRHRAIVYHLESKISKRISFLIIGLAWGISALLASPLAIFREYSLIEIIPDFEIVCCTEKWPGEEKSIYGTVYSLSSLLILYVLPLGIISFSYTRIWSKLKNHVSPGAANDHYHQRRQKTTKMLVAVVVVFAVSWLPLHAFQLAVDIDSQVLDLKEYKLIFTVFHIIAMASTFANPLLYGWMNSNYRKAFLSAFRCEQRLDAIHSEVSVTFKAKKNLEVRKNSGPNDSFTEATNV
